{"source": "patent US20220273711A1", "about": "(published 2022)"}
{"biological_target": "biotinylated Bcl2 (wild-type non-optimized Bcl2 with C-terminal Avi and 6xHis-tags) (UniProt P10415 1-207, enzymatically biotinylated using BirA (Avi tag))", "sequence (P10415 1-207)": "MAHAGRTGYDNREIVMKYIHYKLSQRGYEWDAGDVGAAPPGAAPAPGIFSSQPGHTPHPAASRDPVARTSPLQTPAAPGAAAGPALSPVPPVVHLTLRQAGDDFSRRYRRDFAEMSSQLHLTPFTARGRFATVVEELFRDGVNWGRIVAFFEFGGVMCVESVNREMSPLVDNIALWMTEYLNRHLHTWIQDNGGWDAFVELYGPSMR", "experiment": "BLI; midpoint; Cage plus Key_EGFR, co-localization-independent", "units": {"EC50": "nM"}}
{"binder": "Her2_Cage_L209A (Tuned Cage targeted to Her2 by DARPin (L209A)) (designed binder) MGSHHHHHHGSGSENLYFQGSGGSDLGKKLLEAARAGQDDEVRILMANGADVNAKDEYGLTPLYLATAHGHLEIVEVLLKNGADVNAVDAIGFTPLHLAAFIGHLEIAEVLLKHGADVNAQDKFGKTAFDISIGNGNEDLAEILQKLNSGSGSGKPGQASGSELARKLLEASTKLQRLNIRLAEALLEAIARLQELNLELVYLAVELTDPKRIRDEIKEVKDKSKEIIRRAEKEIDDAAKESEKILEEAREAISGSGSELAKLLLKAIAETQDLNLRAAKAFLEAAAKLQELNIRAVELLVKLTDPATIREALEHAKRRSKEIIDEAERAIRAAKRESERIIEEARRLIEKGSGSGSELARELLRAHAQAQRLNLELLRELLRALAQLQELNLDLLRLASELTDEIWIAQELRRIGDEFNAYYADAERLIREAAAASEKISREAERLIR", "EC50": 23}
{"binder": "Her2_Cage_I287A (Tuned Cage targeted to Her2 by DARPin (I287A)) (designed binder) MGSHHHHHHGSGSENLYFQGSGGSDLGKKLLEAARAGQDDEVRILMANGADVNAKDEYGLTPLYLATAHGHLEIVEVLLKNGADVNAVDAIGFTPLHLAAFIGHLEIAEVLLKHGADVNAQDKFGKTAFDISIGNGNEDLAEILQKLNSGSGSGKPGQASGSELARKLLEASTKLQRLNIRLAEALLEAIARLQELNLELVYLAVELTDPKRIRDEIKEVKDKSKEIIRRAEKEIDDAAKESEKILEEAREAISGSGSELAKLLLKAIAETQDLNLRAAKAFLEAAAKLQELNIRAVELLVKLTDPATIREALEHAKRRSKEIIDEAERAIRAAKRESERIIEEARRLIEKGSGSGSELARELLRAHAQLQRLNLELLRELLRALAQLQELNLDLLRLASELTDEIWIAQELRRIGDEFNAYYADAERLIREAAAASEKISREAERLAR", "EC50": 12}
{"binder": "Her2_Cage_I269S (Tuned Cage targeted to Her2 by DARPin (I269S)) (designed binder) MGSHHHHHHGSGSENLYFQGSGGSDLGKKLLEAARAGQDDEVRILMANGADVNAKDEYGLTPLYLATAHGHLEIVEVLLKNGADVNAVDAIGFTPLHLAAFIGHLEIAEVLLKHGADVNAQDKFGKTAFDISIGNGNEDLAEILQKLNSGSGSGKPGQASGSELARKLLEASTKLQRLNIRLAEALLEAIARLQELNLELVYLAVELTDPKRIRDEIKEVKDKSKEIIRRAEKEIDDAAKESEKILEEAREAISGSGSELAKLLLKAIAETQDLNLRAAKAFLEAAAKLQELNIRAVELLVKLTDPATIREALEHAKRRSKEIIDEAERAIRAAKRESERIIEEARRLIEKGSGSGSELARELLRAHAQLQRLNLELLRELLRALAQLQELNLDLLRLASELTDEIWIAQELRRIGDEFNAYYADAERLSREAAAASEKISREAERLIR", "EC50": 8.4}
{"binder": "Her2_Cage (Original Cage targeted to Her2 by DARPin) (designed binder) MGSHHHHHHGSGSENLYFQGSGGSDLGKKLLEAARAGQDDEVRILMANGADVNAKDEYGLTPLYLATAHGHLEIVEVLLKNGADVNAVDAIGFTPLHLAAFIGHLEIAEVLLKHGADVNAQDKFGKTAFDISIGNGNEDLAEILQKLNSGSGSGKPGQASGSELARKLLEASTKLQRLNIRLAEALLEAIARLQELNLELVYLAVELTDPKRIRDEIKEVKDKSKEIIRRAEKEIDDAAKESEKILEEAREAISGSGSELAKLLLKAIAETQDLNLRAAKAFLEAAAKLQELNIRAVELLVKLTDPATIREALEHAKRRSKEIIDEAERAIRAAKRESERIIEEARRLIEKGSGSGSELARELLRAHAQLQRLNLELLRELLRALAQLQELNLDLLRLASELTDEIWIAQELRRIGDEFNAYYADAERLIREAAAASEKISREAERLIR", "EC50": 63}
{"binder": "Her2_Cage_I287S (Tuned Cage targeted to Her2 by DARPin (I287S)) (designed binder) MGSHHHHHHGSGSENLYFQGSGGSDLGKKLLEAARAGQDDEVRILMANGADVNAKDEYGLTPLYLATAHGHLEIVEVLLKNGADVNAVDAIGFTPLHLAAFIGHLEIAEVLLKHGADVNAQDKFGKTAFDISIGNGNEDLAEILQKLNSGSGSGKPGQASGSELARKLLEASTKLQRLNIRLAEALLEAIARLQELNLELVYLAVELTDPKRIRDEIKEVKDKSKEIIRRAEKEIDDAAKESEKILEEAREAISGSGSELAKLLLKAIAETQDLNLRAAKAFLEAAAKLQELNIRAVELLVKLTDPATIREALEHAKRRSKEIIDEAERAIRAAKRESERIIEEARRLIEKGSGSGSELARELLRAHAQLQRLNLELLRELLRALAQLQELNLDLLRLASELTDEIWIAQELRRIGDEFNAYYADAERLIREAAAASEKISREAERLSR", "EC50": 8.7}
